Laboratory results: PMC3589550 (Nature structural & molecular biology, 2011)
“Also recorded” adds a separate entry of the source.

What was measured:
[1] = target: HAUSP TRAF domain (HAUSP^62–205) (Homo sapiens, UniProt Q93009); assay type: binding; conditions: ITC
HAUSP [2] = target: T1, HAUSP (Homo sapiens, UniProt Q93009); assay: In vitro deubiquitination; assay type: biochemical; conditions: immunopurified Flag-HAUSP complexes, K48-linked 3–7 polyubiquitin chains
p53 = p53 ubiquitination on vIRF4 expression; assay type: cell-based
HAUSP [3] = target: T1, HAUSP; assay: Co-IP / GST pull-down of HAUSP; assay type: binding; conditions: transfected 293T cells

Sequence of HAUSP TRAF domain (HAUSP^62–205) (Q93009 62-205): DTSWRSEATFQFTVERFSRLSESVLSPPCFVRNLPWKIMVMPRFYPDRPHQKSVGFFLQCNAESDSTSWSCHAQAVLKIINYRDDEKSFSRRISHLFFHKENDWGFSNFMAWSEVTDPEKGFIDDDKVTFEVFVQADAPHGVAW
T1 sequence (Q93009 whole entry): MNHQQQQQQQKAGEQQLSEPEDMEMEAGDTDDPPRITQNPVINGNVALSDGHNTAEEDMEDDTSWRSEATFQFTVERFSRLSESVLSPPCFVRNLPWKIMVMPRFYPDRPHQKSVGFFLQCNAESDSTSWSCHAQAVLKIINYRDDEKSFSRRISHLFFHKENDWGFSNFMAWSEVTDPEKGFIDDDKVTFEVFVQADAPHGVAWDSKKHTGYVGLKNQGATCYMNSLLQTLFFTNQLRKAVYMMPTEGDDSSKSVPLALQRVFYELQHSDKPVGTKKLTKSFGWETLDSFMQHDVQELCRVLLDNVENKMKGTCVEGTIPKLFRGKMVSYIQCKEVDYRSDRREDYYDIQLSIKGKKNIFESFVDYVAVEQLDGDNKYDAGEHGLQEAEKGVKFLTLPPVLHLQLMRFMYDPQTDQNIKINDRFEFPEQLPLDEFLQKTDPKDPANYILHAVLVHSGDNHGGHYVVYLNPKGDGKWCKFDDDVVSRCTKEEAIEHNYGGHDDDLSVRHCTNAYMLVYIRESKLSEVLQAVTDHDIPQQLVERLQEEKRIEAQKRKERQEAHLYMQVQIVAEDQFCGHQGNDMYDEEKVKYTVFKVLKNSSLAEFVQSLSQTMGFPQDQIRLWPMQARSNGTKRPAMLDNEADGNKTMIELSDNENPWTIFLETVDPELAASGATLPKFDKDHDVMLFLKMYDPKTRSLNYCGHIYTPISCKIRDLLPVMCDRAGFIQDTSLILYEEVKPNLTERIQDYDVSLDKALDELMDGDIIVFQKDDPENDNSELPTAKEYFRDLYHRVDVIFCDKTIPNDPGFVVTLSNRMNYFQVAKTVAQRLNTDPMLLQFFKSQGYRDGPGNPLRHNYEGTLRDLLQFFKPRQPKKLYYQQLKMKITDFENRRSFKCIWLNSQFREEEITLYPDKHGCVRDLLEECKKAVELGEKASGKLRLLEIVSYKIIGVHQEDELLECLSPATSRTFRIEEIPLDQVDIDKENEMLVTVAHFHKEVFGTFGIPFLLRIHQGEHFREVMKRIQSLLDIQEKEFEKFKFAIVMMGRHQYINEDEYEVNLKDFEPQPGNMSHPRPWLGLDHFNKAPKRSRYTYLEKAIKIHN

B1: vIRF4^153–256/Δ202–216: vIRF4^153–256 with residues 202–216 deleted (protein)
chain: SDTREQSYEEAGAAAPAPPKAPSGLRGRPRKSNRYYNVGDITTEQKAACGSSGTRQVTQASSFTWRVPGDPPAPSTLTGPSDPHSSGAG
- TRAF binding affinity, in words [1]: significant reduction of TRAF binding affinity

B2: vIRF4: KSHV viral interferon regulatory factor 4 (protein)
chain: MPKAGGSEWATLWIIDALENNKFPYFSWFDRNNLLFAAPAPLPAGSDIPPGWYSVYHAFDEECDRVYGPSPVVGQTVYGRFGRLLRGTRRAVVRNDLRYSDTFGGSYVVWQLVRTPFKNCTYCYGAAYGPEKLQRFIQCLLSPPMQTTATRRSDTREQSYEEAGAAAPAPPKAPSGLRGRPRKSNRYYNVGDITTEQKAACSVWIPVNEGASTSGMGSSGTRQVTQASSFTWRVPGDPPAPSTLTGPSDPHSSGAGLPGTAPPKPQHETRLAGTVSGVSGVAQTPGDTGQLAPPMRDGSRLPSTSPWIPACFPWGDLPVTGWWPQGASGLPEKVHPPTTGQFDPLSPRWTYTGIPSSQLNPAAPSWIPPHAQAGTFVGEFSQGAPLAPQGLLPQSGQCASAWLPRRETGAEGACGASTEGRAPQGAASERVYPFEPQPPSAPAPGYAKPSCYNWSPLAEPPATRPIRAPVWHPPVGHAVVPEVRTPLWIPWSSGGAPNQGLSHTQGGASATPSAGAPPTPEVAERQEPSSSGIPYVCQGDNMATGYRRVTTSSGALEVEIIDLTGDSDTPSTTVASTPLPVSGPRVFQPTVLYSAPEPAVNPEVSHLPTELERRECVCPGSGERPRVPLVSTYAGDRYAVGGYGPEQSLVPPPLGLPLTLSNLQGEDICTWEEGLGNILSELQEEPSSSTRQATDRRRPRSRSPHGRRTPVSHSGPEKPPSKMFFDPPDSQRVSFVVEIFVYGNLRGTLRREGDAGEAMLCSWPVGDTLGHLCQSFVPELLRIPRLTVPSPEQMEILNRVFEGLGHGFPIFCSMSGIYSRNATQVEGWWFGNPNSRYERILRSFSPRVPQQLFNTARYLATTAAIPQTPLSVNPVTCGTVFFGASPASTENFQNVPLTVKIFIGSIWDSLH
modifications: left off: V5, end not stated, kept
- HAUSP DUB activity (HAUSP [2]): effectively suppressed HAUSP DUB activity in a binding-dependent manner
- p53 ubiquitination (p53): markedly induced p53 ubiquitination

B3: vIRF4^153–256/Δ202–216/Δ237–256: vIRF4^153–256 with residues 202–216 and 237–256 deleted (protein)
chain: SDTREQSYEEAGAAAPAPPKAPSGLRGRPRKSNRYYNVGDITTEQKAACGSSGTRQVTQASSFTWRVPG
- TRAF binding affinity, in words [1]: had no further effect

B4: vIRF4^153–256: central region fragment of vIRF4, residues 153–256 (protein)
chain: SDTREQSYEEAGAAAPAPPKAPSGLRGRPRKSNRYYNVGDITTEQKAACSVWIPVNEGASTSGMGSSGTRQVTQASSFTWRVPGDPPAPSTLTGPSDPHSSGAG
- interaction with HAUSP (HAUSP [3]): specifically interacts with; also recorded: sufficient to bind to HAUSP
- fold higher TRAF affinity (C-terminally extended) ([1]; compared with vIRF4^153–216 / vIRF4^202–216): 7 fold
